Reference: patent publication US20030129189A1, “Tumor necrosis factor-gamma” (priority 1994, published 2003)

How the values were obtained:
Assay in all cases: flow cytometry on transiently transfected cells
[1] = target: T1, BCMA on transiently transfected cells (UniProt Q02223 1-184, limits assumed)
T1 construct: whole, on cells
T1 sequence (looked up): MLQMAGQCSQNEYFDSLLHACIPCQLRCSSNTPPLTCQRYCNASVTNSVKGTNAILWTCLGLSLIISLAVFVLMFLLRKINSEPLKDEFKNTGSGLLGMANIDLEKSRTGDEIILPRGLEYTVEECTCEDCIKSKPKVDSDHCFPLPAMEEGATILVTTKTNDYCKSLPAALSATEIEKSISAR
Description: (§1) One million cells, in 0.1 ml of FACS buffer (PBS, 0.1% BSA, 0.1% NaN₃), were incubated with 0.1-1 microgram of protein or antibody at RT for 15 min. The cells were washed with 3 ml of FACS buffer, reacted with biotinylated primary antibody, and stained with PE-conjugated secondary antibody at RT for 15 min. Cells were then washed again, resuspended in 0.5 microgram/ml of propidium iodide, and live cells were gated and analyzed on a FACScan using the CellQuest software (BD Biosciences).

[2] = target: T2, DR4 on transiently transfected cells (UniProt O00220 24-468, limits assumed)
T2 construct: whole, on cells
T2 sequence (looked up): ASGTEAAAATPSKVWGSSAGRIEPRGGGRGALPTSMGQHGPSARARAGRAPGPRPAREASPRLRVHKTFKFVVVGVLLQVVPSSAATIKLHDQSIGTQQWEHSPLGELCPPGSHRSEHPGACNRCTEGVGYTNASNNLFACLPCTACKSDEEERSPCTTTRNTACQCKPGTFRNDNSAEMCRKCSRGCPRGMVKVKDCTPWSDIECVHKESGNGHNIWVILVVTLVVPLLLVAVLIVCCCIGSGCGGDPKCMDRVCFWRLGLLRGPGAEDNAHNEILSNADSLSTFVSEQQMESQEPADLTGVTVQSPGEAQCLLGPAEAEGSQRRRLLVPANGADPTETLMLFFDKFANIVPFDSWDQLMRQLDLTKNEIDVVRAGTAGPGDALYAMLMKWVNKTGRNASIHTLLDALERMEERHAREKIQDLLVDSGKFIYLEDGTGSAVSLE
Description: as §1

[3] = target: T3, DR5 on transiently transfected cells (UniProt O14763 56-440, limits assumed)
T3 construct: whole, on cells
Description: as §1

[4] = target: T4, DR6 on transiently transfected cells (UniProt O75509 42-655, limits assumed)
T4 construct: whole, on cells
T4 sequence (looked up): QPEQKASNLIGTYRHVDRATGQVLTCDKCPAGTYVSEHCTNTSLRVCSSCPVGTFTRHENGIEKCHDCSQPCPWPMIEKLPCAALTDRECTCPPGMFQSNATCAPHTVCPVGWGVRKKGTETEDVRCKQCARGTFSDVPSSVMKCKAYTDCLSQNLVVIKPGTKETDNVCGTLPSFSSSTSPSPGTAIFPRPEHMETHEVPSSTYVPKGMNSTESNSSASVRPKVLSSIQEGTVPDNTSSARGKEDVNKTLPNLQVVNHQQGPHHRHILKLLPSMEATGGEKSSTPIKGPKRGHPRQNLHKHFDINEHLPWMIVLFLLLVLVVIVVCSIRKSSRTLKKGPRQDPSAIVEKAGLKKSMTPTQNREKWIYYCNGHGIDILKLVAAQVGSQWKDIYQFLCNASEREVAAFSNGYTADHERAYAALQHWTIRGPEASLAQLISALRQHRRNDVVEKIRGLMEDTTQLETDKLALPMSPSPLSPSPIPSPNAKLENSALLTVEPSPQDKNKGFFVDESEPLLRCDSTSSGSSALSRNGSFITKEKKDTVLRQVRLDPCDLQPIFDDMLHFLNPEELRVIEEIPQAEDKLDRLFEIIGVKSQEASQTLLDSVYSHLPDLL
Description: as §1

[5] = target: T5, DcR1 on transiently transfected cells (UniProt O14798 26-236, limits assumed)
T5 construct: whole, on cells
T5 sequence (looked up): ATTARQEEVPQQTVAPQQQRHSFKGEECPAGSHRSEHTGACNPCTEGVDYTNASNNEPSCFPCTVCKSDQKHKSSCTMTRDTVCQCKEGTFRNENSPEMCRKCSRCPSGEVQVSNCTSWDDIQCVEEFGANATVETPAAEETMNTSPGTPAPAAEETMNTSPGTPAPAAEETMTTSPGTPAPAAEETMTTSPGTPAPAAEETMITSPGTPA
Description: as §1

[6] = target: T6, DcR2 on transiently transfected cells (UniProt Q9UBN6 56-386, limits assumed)
T6 construct: whole, on cells
T6 sequence (looked up): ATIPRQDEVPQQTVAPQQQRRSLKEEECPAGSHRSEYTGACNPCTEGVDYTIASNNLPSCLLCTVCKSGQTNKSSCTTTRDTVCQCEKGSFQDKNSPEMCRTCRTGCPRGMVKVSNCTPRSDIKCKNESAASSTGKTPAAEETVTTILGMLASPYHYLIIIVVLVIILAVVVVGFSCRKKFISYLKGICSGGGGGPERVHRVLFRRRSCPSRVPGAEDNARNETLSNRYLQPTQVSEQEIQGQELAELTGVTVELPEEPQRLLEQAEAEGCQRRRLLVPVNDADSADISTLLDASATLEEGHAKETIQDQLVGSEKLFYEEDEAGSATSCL
Description: as §1

[7] = target: T7, AITR on transiently transfected cells (UniProt Q9Y5U5 26-241, limits assumed)
T7 construct: whole, on cells
T7 sequence (looked up): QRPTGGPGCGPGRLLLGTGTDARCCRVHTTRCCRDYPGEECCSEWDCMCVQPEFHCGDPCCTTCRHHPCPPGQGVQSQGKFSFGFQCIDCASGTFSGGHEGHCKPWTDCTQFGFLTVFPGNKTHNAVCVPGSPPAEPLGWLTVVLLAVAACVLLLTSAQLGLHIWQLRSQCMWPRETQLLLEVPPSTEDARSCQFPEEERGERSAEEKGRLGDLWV
Description: as §1

Measured: binding result

B1: FLAG-tagged soluble TNF-gamma-beta (aa 72-251) (ligand)
chain: LKGQEFAPSHQQVYAPLRADGDKPRAHLTVVRQTPTQHFKNQFPALHWEHELGLAFTKNRMNYTNKFLLIPESGDYFIYSQVTFRGMTSECSEIRQAGRPNKPDSITVVITKVTDSYPEPTQLLMGTKSVCEVGSNWFQPIYLGAMFSLQEGDKLMVNVSDISLVDYTKEDKTFFGAFLL
notes: also called FLAG-TL1β; FLAG-TNF-gamma-beta; not shown: The N-terminal FLAG tag (pFLAG-CMV-1 vector) and any vector linker
no binding: [1] | [2] | [3] | [4] | [5] | [6] | [7]
